Biological target: T1, LRP-1 (Homo sapiens, UniProt Q07954)
T1 construct: Proteins were extracted from colon cancer tissues of each case according to radiation irradiation; from tissue; host or cells: patient colon cancer tissue (0 Gy / 2 Gy) transplanted and subcultured in nude mice
Assay: Immunoprecipitation assay of TPSFSKI peptide phage and LRP-1, confirmed by western blotting
Format: binding
Settings: proteins extracted from colon cancer tissues, 0 Gy/2 Gy irradiation, LRP-1 and M13 antibodies, IgG beads
Source text: Lysate: 0 Gy/2 Gy protein extracted from radiation colon cancer tissue, IP (B5 phage): 0 Gy/2 Gy Immunoprecipitation with a specific peptide phage in protein extracted from radiation colon cancer tissue, IP (wt phage): 0 Gy/2 Gy Immunoprecipitation in protein extracted from radiation colon cancer tissue with phage without peptide, IP (w/o Ab): 0 Gy/2 Gy Immunoprecipitation without antibody in protein extracted from radiation colon cancer tissue, phage lysate: protein extracted from peptide phage targeting by irradiation in radiation resistant colon cancer tissue, Antibody: LRP-1 antibody
Based on the indirect verification that LRP-1 is a binding partner protein of the TPSFSKI peptide sequence in Examples 3 to 5, an immunoprecipitation assay was performed to directly determine whether […] was bound to the TPSFSKI sequence. Proteins were extracted from colon cancer tissues of each case according to radiation irradiation, and immunoprecipitation was performed using LRP-1 and M13 antibodies and IgG beads.

T1 sequence (Q07954 20-4544): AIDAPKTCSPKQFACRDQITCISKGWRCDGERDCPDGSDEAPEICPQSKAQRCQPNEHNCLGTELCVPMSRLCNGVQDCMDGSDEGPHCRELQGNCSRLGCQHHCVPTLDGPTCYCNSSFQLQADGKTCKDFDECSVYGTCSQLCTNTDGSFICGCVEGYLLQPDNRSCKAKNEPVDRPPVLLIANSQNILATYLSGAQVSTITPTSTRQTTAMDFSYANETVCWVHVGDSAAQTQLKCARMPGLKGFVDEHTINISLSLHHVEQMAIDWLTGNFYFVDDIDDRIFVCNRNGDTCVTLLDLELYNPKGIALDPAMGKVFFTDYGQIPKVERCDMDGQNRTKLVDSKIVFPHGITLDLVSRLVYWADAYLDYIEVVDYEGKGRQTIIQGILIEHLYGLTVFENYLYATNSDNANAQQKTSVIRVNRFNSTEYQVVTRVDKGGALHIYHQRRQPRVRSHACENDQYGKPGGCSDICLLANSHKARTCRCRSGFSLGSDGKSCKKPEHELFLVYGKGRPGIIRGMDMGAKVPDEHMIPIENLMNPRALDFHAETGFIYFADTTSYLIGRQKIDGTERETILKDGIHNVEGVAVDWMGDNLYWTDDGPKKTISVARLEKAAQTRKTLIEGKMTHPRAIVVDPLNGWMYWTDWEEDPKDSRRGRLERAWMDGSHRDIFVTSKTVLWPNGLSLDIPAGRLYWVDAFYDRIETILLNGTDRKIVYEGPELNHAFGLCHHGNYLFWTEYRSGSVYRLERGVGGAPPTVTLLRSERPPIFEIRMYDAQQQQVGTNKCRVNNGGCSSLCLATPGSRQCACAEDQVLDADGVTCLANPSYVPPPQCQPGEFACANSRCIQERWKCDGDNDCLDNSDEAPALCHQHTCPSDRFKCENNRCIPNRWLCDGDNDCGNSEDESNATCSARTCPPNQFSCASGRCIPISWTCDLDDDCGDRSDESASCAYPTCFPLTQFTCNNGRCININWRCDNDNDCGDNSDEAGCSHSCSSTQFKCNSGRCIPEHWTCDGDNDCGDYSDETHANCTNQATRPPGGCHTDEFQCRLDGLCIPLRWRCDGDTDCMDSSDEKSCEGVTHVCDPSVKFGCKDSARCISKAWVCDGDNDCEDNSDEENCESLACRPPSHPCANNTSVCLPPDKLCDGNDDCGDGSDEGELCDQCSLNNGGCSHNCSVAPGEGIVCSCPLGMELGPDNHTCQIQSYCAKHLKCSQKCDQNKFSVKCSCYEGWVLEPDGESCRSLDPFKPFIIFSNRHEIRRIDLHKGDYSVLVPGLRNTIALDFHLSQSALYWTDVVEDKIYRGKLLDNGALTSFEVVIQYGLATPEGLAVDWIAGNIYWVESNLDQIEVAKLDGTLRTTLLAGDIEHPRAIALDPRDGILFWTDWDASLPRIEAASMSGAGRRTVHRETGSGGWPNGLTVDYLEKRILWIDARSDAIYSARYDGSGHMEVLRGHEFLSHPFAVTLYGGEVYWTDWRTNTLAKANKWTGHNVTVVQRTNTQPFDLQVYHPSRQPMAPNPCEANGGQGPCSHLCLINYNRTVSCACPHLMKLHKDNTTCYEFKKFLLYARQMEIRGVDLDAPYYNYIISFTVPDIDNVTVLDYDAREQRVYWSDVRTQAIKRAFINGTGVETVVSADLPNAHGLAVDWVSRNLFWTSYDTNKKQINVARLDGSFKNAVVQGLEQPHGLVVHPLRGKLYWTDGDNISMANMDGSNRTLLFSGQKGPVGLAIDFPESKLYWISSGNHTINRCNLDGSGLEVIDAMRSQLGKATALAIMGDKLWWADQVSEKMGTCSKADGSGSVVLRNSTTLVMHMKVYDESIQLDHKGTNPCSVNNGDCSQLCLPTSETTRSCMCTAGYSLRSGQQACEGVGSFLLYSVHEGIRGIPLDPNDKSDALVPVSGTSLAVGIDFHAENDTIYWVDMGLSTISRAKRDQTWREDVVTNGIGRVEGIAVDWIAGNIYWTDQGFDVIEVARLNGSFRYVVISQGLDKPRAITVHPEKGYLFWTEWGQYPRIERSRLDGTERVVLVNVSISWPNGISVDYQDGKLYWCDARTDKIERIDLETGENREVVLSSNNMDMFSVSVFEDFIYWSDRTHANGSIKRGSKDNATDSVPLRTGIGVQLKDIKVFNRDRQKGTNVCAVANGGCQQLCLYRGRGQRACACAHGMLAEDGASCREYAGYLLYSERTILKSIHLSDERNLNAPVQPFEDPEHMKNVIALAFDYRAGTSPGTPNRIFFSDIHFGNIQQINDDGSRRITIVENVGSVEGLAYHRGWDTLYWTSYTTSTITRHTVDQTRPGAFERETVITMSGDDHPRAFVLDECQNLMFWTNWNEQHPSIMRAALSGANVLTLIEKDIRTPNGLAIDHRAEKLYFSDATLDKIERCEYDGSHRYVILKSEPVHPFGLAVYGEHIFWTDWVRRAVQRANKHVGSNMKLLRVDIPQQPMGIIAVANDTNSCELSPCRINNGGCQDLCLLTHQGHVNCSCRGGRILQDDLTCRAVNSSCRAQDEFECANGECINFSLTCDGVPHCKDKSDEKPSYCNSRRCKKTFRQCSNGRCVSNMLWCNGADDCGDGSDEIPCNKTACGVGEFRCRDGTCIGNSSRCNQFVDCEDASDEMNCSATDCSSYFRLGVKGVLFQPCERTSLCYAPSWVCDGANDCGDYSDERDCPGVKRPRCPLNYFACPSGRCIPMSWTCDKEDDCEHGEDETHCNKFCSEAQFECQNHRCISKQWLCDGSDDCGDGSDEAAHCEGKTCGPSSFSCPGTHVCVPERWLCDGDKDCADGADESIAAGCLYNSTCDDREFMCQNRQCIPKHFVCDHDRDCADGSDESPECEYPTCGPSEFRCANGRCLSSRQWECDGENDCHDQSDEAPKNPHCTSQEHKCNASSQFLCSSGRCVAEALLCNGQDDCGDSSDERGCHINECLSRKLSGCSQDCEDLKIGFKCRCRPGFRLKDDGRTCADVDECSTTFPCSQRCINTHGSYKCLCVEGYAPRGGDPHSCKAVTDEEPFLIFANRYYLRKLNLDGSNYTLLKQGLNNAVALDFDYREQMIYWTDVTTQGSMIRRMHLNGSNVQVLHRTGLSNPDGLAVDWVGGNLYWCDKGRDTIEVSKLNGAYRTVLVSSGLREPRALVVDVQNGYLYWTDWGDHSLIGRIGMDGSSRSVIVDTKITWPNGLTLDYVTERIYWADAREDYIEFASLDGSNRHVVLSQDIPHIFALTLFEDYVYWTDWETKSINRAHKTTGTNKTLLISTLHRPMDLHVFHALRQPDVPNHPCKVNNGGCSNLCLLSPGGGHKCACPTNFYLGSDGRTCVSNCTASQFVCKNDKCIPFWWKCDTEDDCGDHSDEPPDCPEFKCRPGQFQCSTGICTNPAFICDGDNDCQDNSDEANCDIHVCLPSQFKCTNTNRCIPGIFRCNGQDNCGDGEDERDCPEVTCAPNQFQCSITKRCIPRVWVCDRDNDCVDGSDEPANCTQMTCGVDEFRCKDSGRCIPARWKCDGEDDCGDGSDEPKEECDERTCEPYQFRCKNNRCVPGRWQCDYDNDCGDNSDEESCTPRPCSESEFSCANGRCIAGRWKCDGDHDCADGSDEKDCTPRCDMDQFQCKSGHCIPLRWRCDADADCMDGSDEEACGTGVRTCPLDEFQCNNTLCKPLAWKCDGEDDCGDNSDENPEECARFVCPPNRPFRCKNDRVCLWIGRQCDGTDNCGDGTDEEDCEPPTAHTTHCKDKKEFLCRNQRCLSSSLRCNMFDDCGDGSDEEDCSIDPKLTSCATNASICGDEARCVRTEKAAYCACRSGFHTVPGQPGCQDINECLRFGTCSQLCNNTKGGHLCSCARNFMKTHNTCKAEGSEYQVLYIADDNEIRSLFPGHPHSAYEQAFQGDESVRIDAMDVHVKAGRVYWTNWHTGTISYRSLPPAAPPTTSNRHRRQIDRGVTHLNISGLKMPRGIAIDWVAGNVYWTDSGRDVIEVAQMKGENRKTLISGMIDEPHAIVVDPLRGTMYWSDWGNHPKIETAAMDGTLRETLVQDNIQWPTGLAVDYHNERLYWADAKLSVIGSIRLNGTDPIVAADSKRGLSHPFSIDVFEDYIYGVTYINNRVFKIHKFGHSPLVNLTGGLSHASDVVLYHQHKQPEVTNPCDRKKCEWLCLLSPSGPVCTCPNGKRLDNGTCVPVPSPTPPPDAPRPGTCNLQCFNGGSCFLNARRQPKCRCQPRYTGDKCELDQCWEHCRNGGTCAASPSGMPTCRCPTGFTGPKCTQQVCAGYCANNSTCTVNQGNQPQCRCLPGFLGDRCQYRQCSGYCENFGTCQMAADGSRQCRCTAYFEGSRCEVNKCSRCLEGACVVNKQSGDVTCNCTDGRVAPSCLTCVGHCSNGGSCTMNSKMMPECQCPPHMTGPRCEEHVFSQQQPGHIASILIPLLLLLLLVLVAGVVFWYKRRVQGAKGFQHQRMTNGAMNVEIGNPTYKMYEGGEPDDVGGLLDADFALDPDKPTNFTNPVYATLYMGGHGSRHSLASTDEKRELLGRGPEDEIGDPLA

With “TPSFSKI [TPSFSKI peptide, used as peptide phage]” the “binding of LRP-1 to the TPSFSKI sequence (immunoprecipitation)” value was “LRP-1 is a binding partner protein of TPSFSKI peptide”.
